Consider 30 sequences from the nanobody polyreactivity screen of Harvey et al. (2022).

The nature of the data set: yeast display, Sf9 membrane polyspecificity reagent, FACS + sequencing; frameworks hold sequencing errors. In a few lines:
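Polyreactivity labels are assigned by the sorting gate from which each nanobody was recovered. The gates were low and high (top ~1%), set on anti-HA fluorescence for expression and streptavidin fluorescence for reagent binding. Before sorting, galactose-induced (36–48 hours) yeast display cells were stained for 1 hour at 4 °C with 10% biotinylated, detergent-solubilized Sf9 membrane reagent.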
Take “QVQLVESGGGLVQAGGSLRLSCAASGRTFTSYAMGWYRQAPGKERELVAVITRRGGSTSYADSVKGRFTISRDNAKNTVYLQMNSLKPEDTAVYYCAAKRTWPDVKYIRYGYWGQGTQVTVSS”: the “polyreactivity (PSR sort gate)” value is given as “high polyreactivity”. In the case of “QVQLVESGGGLVQAGGSLRLSCAASGRTFTSYPMGWYRQAPGKERELVAAISQGGGRTYYADSVKGRFTISRDNAKNTVYLQMNSLKPEDTAVYYCNTVSLSLRYDYWGQGTQVTVSS”, the “polyreactivity (PSR sort gate)” value is given as “high polyreactivity”. The value for “QVQLVESGGGLVQAGGSLRLSCAASGRTFTTNAMGSYRQAPGKERELVAAITIGDDTYYADSVKGRFTISRDNAKNTVYLQMNSLKPEDTAVYYCAADYKRVPFVTQYVSKDGYWGQGTQVTVSS” was “low polyreactivity”; that for “QVQLVESGGGLVQAGGSLRLSCAASGRTFTTNAMGWYRQAPGKERELVAGISYSTGRTYYADSVKGRFTISRDNAKNTVYLQMNSLKPEDTAVYYCAAYTRGYRGYYYWGQGTQVTVSS” was “high polyreactivity”; that for “QVQLVESGGGLVQAGGSLRLSCAASGRTFTTYAMGWYRQAPGKERELVASISGSGGSTYFADSVKGRFTISRDNAKNTVYLQMNSLKPEDTAVYYCATADYYHGGYYYPYDDYWGQGTQVTVSS” was “low polyreactivity”. The value for “QVQLVESGGGLVQAGGSLRLSCAASGRTFTTYAMGWYRQAPRKERELVASISRRGGSTYYADSVKGRFTISRDNAKNTVYLQMNSLKPEDTAVYYCNAGGVRKYGYWGQGTQVTVSS” was “high polyreactivity”; that for “QVQLVESGGGLVQAGGSLRLSCAASGRTFTVNAMGWYRPAPGKERELVAAISGRSGRTSYADSVKGRFTISRDNAKNNVYLQMNSLKPEDTAVYSCNASGGYSTGSRFEYWGQGTQVTVSS” was “high polyreactivity”; that for “QVQLVESGGGLVQAGGSLRLSCAASGRTFTWNAMGWYRQAPGKERELVADITNNGGSTYYADSVKGRFTISRDNATNTVYLQMNSLKPEDTAVYYCDNRRNYWFSFDYWGQGTQVTVSS” was “low polyreactivity”. The entry for “QVQLVESGGGLVQAGGSLRLSCAASGRTFTWYTMGCYIQAPGKERELVAAISGSGSRTYYADSVKGRFTISRDNAKNTVYLQMNSLKPEDTAVYYCAKDKSARYRYDYWGQGTQVTVSS” is “low polyreactivity”. For “QVQLVESGGGLVQAGGSLRLSCAASGRTFTYNAMGWYRQAPGKERELVASITWSGGRTYYADSVKGRFTISRDNAKNTVYLQMNSLKPEDTAVYYCAAYRWWGYITGVRGAKSIFDYWGQGTQVTVSS”, the “polyreactivity (PSR sort gate)” value was “high polyreactivity”. The value for “QVQLVESGGGLVQAGGSLRLSCAASGRTFTYNTMGWYRQAPGKERELVAAISSRGGRTYYADSVKGRFTISRDNAKNTVYLQLNSLKPEDTAVYACAVYGYYALTHWEYDYWGQGTQVTVSS” was “high polyreactivity”. The value for “QVQLVESGGGLVQAGGSLRLSCAASGRTFTYYAMGWYRQAPGKERELVADINRSGGDTYYADSVKGRFTISRDNAKNTVYLQMNSLKPEDTAVYYCAADDWGAQHRYDYWGQGTQVTVSS” was “low polyreactivity”; that for “QVQLVESGGGLVQAGGSLRLSCAASGRTFTYYAMGWYRQAPGKERELVARISSSGSTNYADSVKGRFTISRDNAKNTVYLQMNSLKPEDTAVYYCAARYWRGPRYDYWGQGTQVTVSS” was “high polyreactivity”. Take “QVQLVESGGGLVQAGGSLRLSCAASGRTFTYYAMGWYRQAPGKERKLVAAISQRGGGTYYADSVKGRFTISRDNAKNTVYLQMNSLKPEDTAVYYCAARWRLSGYDYWGQGTQVTVSS”: the “polyreactivity (PSR sort gate)” value was “high polyreactivity”. On to “QVQLVESGGGLVQAGGSLRLSCAASGRTFVDNAMGWYRHAPGKERELVAAISSGGTTNYADSVKGRFTISRDNAKNTVYLQMNSLKPEDTAVYYCNTVATYLRSGYGYWGQGTQVTVSS”, for which the “polyreactivity (PSR sort gate)” value was “low polyreactivity”. Take “QVQLVESGGGLVQAGGSLRLSCAASGRTFVDYVMGWYRQAPGKERELVAAISRSGSTYYADSVKGRFTISRDNAKNTVYLQMNSLKPEDTAVYYCAASSVALPWYVSWYVYGYEYWGQGTQVTVSS”: the “polyreactivity (PSR sort gate)” value is listed as “low polyreactivity”.

For “QVQLVESGGGLVQAGGSLRLSCAASGRTFVFNAMGWYRQAPGKERELVAGISGSGGSTYYADSVKGRFTISRDNAKNTVYLQMNSLKPEDTAVYYCATKFPRKELDQDSVSGLGYWGQGTQVTVSS”, the “polyreactivity (PSR sort gate)” value was “low polyreactivity”. As for “QVQLVESGGGLVQAGGSLRLSCAASGRTFVGNVMGWYRQAPGKERELVAAINRDASTNYADSVKGRFTISRDNAKNTVYLQMNSLKPEDTAVYYCATRRGFFDIFYGGYDYWGQGTQVTVSS”, the “polyreactivity (PSR sort gate)” value was “low polyreactivity”. The entry for “QVQLVESGGGLVQAGGSLRLSCAASGRTFVGYAMGWYRQAPGKERELVAAISRRGGSTYYADSVKGRFTISRDYAKKTVYLQMNSLKPEDTAVYYCARDYGGVGAPGSAGAYDYWGQGTQVTVSS” is “high polyreactivity”; for “QVQLVESGGGLVQAGGSLRLSCAASGRTFVGYAMGWYRQAPGKERELVAAISWSGGRTYYADSVKGRFTISRDNAKNTVYLQMNSLKPEDTAVYYCAALLYRTPYYPYYGYDYWGQGTQVTVSS” it is “high polyreactivity”; for “QVQLVESGGGLVQAGGSLRLSCAASGRTFVGYAMGWYRQSPGKERELVAAISTSGGRTYYADSVKGRFTISRDNAKYTVYLQMNSLKPEDTAVYYCAAGFRASIGYVTEYYWGQGTQVTVTS” it is “high polyreactivity”. “QVQLVESGGGLVQAGGSLRLSCAASGRTFVGYPIGWYRQAPGKESELVATITNDAITNADSVKGRFTISRDNAKNTVYLQMNSLKPEDTAVYYCNTRYSYGTAYEQYRYKALYDYWGQGTQVTVSS”: the “polyreactivity (PSR sort gate)” value was “low polyreactivity”.

Consider “QVQLVESGGGLVQAGGSLRLSCAASGRTFVINAMGWYRQAPGKERELVAAISRGGSTNYADSVKGRFTISRDNAKNTVYLQMNSLKPEDTAVYYCNADYPNWWSPFDYWGQGTQVTVSS”, for which the “polyreactivity (PSR sort gate)” value was “low polyreactivity”. With “QVQLVESGGGLVQAGGSLRLSCAASGRTFVKNAMGWYRQAPGKERELVAAIDRGSRTNYADSVKGRFTISRDNAKNTVYLQMNSLKPEDTAVYYCATRYRVRDDQTGTWSIFGYWGQGTQVTVSS”, the “polyreactivity (PSR sort gate)” value is “high polyreactivity”. For “QVQLVESGGGLVQAGGSLRLSCAASGRTFVKNAMGWYRQAPGKERELVAAISRTGSTNYADSVKGRFTISRDNAKNTVYLQMNSLKPEDTAVYYCAAVRYDYWGQGTQVTVSS”, the “polyreactivity (PSR sort gate)” value was “low polyreactivity”.

Regarding “QVQLVESGGGLVQAGGSLRLSCAASGRTFVLYAMGWYRQAPGKERELVAAITSGGSTNYADSVKGRFTISRDNAKNTVYLQMNSLKPEDTAVYDCAAVPVRYRYSYGYYYWGQGTQVTVSS”, the “polyreactivity (PSR sort gate)” value was “high polyreactivity”. With “QVQLVESGGGLVQAGGSLRLSCAASGRTFVLYAMGWYRQAPVKERELVASITWSGVSTTYADSVKGRFTISRDNAKNTVYLQMNSLKPEDTAVYYCAKDGLFEQGYPYQLGYWGQGTQVTVSS”, the “polyreactivity (PSR sort gate)” value was “low polyreactivity”. In the case of “QVQLVESGGGLVQAGGSLRLSCAASGRTFVLYTMGRYRQAPGKERELVAVGSTYYADSVKGRFTISRDNAKNTVYLQMNSLKPEDTAVYYCNKPGNYVWRRSWDFDYWGQGTQVTVSS”, the “polyreactivity (PSR sort gate)” value is given as “high polyreactivity”. The entry for “QVQLVESGGGLVQAGGSLRLSCAASGRTFVLYTMGWYRQAPGKERELVAVGSTYYADSVKGRFTISRDNAKNTVYLQMNSLIAEDTAVYYCAADIHWYGYYYWGLGTQVTVSS” is “high polyreactivity”. The entry for “QVQLVESGGGLVQAGGSLRLSCAASGRTFVLYTMGWYRQAPGKERELVAVGSTYYADSVKGRFTISRDNAKNTVYLQMNSLKPEDTAVYYCNKPGNYVWRRSWDFDYWGQGTQVTVSS” is “high polyreactivity”.
